The target in this assay is recombinant TIMP-3 (human or mouse; Table 2 does not say which). Nature of the assay: AlphaScreen, biotinylated TIMP-3, Assay 1. Background: Alpha assays give light when donor and acceptor beads are brought close together.
Sequence of recombinant TIMP-3 (human or mouse; Table 2 does not say which) (P35625 24-211): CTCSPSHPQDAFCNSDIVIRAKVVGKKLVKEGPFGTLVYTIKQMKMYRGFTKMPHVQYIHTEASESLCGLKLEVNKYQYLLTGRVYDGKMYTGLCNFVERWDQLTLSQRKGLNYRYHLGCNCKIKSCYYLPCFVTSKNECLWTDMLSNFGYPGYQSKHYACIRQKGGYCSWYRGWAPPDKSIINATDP

Regarding CNASSQFLCSSGRCVAEALLCNGQDDCGDSSDERGCHINE [LRP-1 peptide LA20], the total signal (cps) came out at 2200 cps.

Source of the values: patent US20120231013A1.
